In patent publication US20140294898A1 (published 2014) one finds IC50 data, which are given here for 14 molecules.

The assay addresses T1, human PD-L1 (human, UniProt Q9NZQ7 19-239, limits assumed).
T1 construct: also called Hu PD-L1; hPD-L1
The experiment in a line: cell binding assay, inhibition of Hu PD-L1/PD-1 binding.

Positions of bridges follow the written chain, without caps; N, C: chain ends. Non-standard residues stand in square brackets, D forms with d. Phe(4-tBu) = CC(C)(C)c1ccc(C[C@H](N)C(=O)O)cc1; Bip = N[C@@H](Cc1ccc(-c2ccccc2)cc1)C(=O)O; Phe(4-Br) = N[C@@H](Cc1ccc(Br)cc1)C(=O)O; Phe(4-Cl) = N[C@@H](Cc1ccc(Cl)cc1)C(=O)O; Phe(4-F) = N[C@@H](Cc1ccc(F)cc1)C(=O)O; 1Nal = N[C@@H](Cc1cccc2ccccc12)C(=O)O; 2Nal = N[C@@H](Cc1ccc2ccccc2c1)C(=O)O; 3Pal = N[C@@H](Cc1cccnc1)C(=O)O; 4Pal = N[C@@H](Cc1ccncc1)C(=O)O; 3Thi = N[C@@H](Cc1ccsc1)C(=O)O; NMeNle = CCCC[C@H](NC)C(=O)O; NMeA = CN[C@@H](C)C(=O)O; Sar = CNCC(=O)O

T1 sequence (Q9NZQ7 19-239 limits assumed): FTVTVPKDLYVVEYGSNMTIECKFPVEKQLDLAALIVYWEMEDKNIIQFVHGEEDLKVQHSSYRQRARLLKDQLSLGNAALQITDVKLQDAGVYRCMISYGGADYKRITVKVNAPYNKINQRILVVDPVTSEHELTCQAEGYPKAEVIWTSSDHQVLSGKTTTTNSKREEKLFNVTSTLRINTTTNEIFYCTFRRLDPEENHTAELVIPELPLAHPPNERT

B1: Compound No. 40 (peptide)
peptide: {CH2CO}-[3Thi][NMeA]NPHL[Sar]WSW[NMeNle][NMeNle]RCG-NH2
modifications: thioether N-14
SMILES: CCCC[C@H]1C(=O)N(C)[C@@H](CCCC)C(=O)N[C@@H](CCCNC(=N)N)C(=O)N[C@H](C(=O)NCC(N)=O)CSCC(=O)N[C@@H](Cc2ccsc2)C(=O)N(C)[C@@H](C)C(=O)N[C@@H](CC(N)=O)C(=O)N2CCC[C@H]2C(=O)N[C@@H](Cc2c[nH]cn2)C(=O)N[C@@H](CC(C)C)C(=O)N(C)CC(=O)N[C@@H](Cc2c[nH]c3ccccc23)C(=O)N[C@@H](CO)C(=O)N[C@@H](Cc2c[nH]c3ccccc23)C(=O)N1C
notes: macrocyclic peptide, Formula I series; also called Compound 40
The IC50 is the concentration at which inhibition is half-maximal. For B1, the half-maximal inhibitory concentration (IC50) was 20 nM.

B2: Compound No. 37 (peptide)
peptide: {CH2CO}-[Phe(4-tBu)][NMeA]NPHL[Sar]WSW[NMeNle][NMeNle]RCG-NH2
modifications: thioether N-14
SMILES: CCCC[C@H]1C(=O)N(C)[C@@H](CCCC)C(=O)N[C@@H](CCCNC(=N)N)C(=O)N[C@H](C(=O)NCC(N)=O)CSCC(=O)N[C@@H](Cc2ccc(C(C)(C)C)cc2)C(=O)N(C)[C@@H](C)C(=O)N[C@@H](CC(N)=O)C(=O)N2CCC[C@H]2C(=O)N[C@@H](Cc2c[nH]cn2)C(=O)N[C@@H](CC(C)C)C(=O)N(C)CC(=O)N[C@@H](Cc2c[nH]c3ccccc23)C(=O)N[C@@H](CO)C(=O)N[C@@H](Cc2c[nH]c3ccccc23)C(=O)N1C
notes: macrocyclic peptide, Formula I series; also called Compound 37
B2: the 50% inhibitory concentration (IC50) amounted to 2520 nM.

B3: Compound No. 34 (peptide)
peptide: {CH2CO}-[Phe(4-Br)][NMeA]NPHL[Sar]WSW[NMeNle][NMeNle]RCG-NH2
modifications: thioether N-14
SMILES: CCCC[C@H]1C(=O)N(C)[C@@H](CCCC)C(=O)N[C@@H](CCCNC(=N)N)C(=O)N[C@H](C(=O)NCC(N)=O)CSCC(=O)N[C@@H](Cc2ccc(Br)cc2)C(=O)N(C)[C@@H](C)C(=O)N[C@@H](CC(N)=O)C(=O)N2CCC[C@H]2C(=O)N[C@@H](Cc2c[nH]cn2)C(=O)N[C@@H](CC(C)C)C(=O)N(C)CC(=O)N[C@@H](Cc2c[nH]c3ccccc23)C(=O)N[C@@H](CO)C(=O)N[C@@H](Cc2c[nH]c3ccccc23)C(=O)N1C
notes: macrocyclic peptide, Formula I series; also called Compound 34
As for B3, the IC50 was 37 nM.

B4: Compound No. 39 (peptide)
peptide: {CH2CO}-[4Pal][NMeA]NPHL[Sar]WSW[NMeNle][NMeNle]RCG-NH2
modifications: thioether N-14
SMILES: CCCC[C@H]1C(=O)N(C)[C@@H](CCCC)C(=O)N[C@@H](CCCNC(=N)N)C(=O)N[C@H](C(=O)NCC(N)=O)CSCC(=O)N[C@@H](Cc2ccncc2)C(=O)N(C)[C@@H](C)C(=O)N[C@@H](CC(N)=O)C(=O)N2CCC[C@H]2C(=O)N[C@@H](Cc2c[nH]cn2)C(=O)N[C@@H](CC(C)C)C(=O)N(C)CC(=O)N[C@@H](Cc2c[nH]c3ccccc23)C(=O)N[C@@H](CO)C(=O)N[C@@H](Cc2c[nH]c3ccccc23)C(=O)N1C
notes: macrocyclic peptide, Formula I series; also called Compound 39
As for B4, the IC50 was found to be 283 nM.

B5: Compound No. 33 (peptide)
peptide: {CH2CO}-[Phe(4-Cl)][NMeA]NPHL[Sar]WSW[NMeNle][NMeNle]RCG-NH2
modifications: thioether N-14
SMILES: CCCC[C@H]1C(=O)N(C)[C@@H](CCCC)C(=O)N[C@@H](CCCNC(=N)N)C(=O)N[C@H](C(=O)NCC(N)=O)CSCC(=O)N[C@@H](Cc2ccc(Cl)cc2)C(=O)N(C)[C@@H](C)C(=O)N[C@@H](CC(N)=O)C(=O)N2CCC[C@H]2C(=O)N[C@@H](Cc2c[nH]cn2)C(=O)N[C@@H](CC(C)C)C(=O)N(C)CC(=O)N[C@@H](Cc2c[nH]c3ccccc23)C(=O)N[C@@H](CO)C(=O)N[C@@H](Cc2c[nH]c3ccccc23)C(=O)N1C
notes: macrocyclic peptide, Formula I series; also called Compound 33
In the case of B5, the IC50 was 7 nM.

B6: Compound No. 69 (peptide)
peptide: FANPHLGWSWFXRCG
HELM: PEPTIDE1{[O=C(C[*:3])[*:2]].F.[meA].N.P.H.L.[Sar].W.S.W.F.[CCCC[C@@H](C(=O)[*:2])N(C)[*:1]].R.C.G.[am]}$PEPTIDE1,PEPTIDE1,1:R3-15:R3$$$V2.0
SMILES: CCCC[C@H]1C(=O)N[C@@H](CCCNC(=N)N)C(=O)N[C@H](C(=O)NCC(N)=O)CSCC(=O)N[C@@H](Cc2ccccc2)C(=O)N(C)[C@@H](C)C(=O)N[C@@H](CC(N)=O)C(=O)N2CCC[C@H]2C(=O)N[C@@H](Cc2c[nH]cn2)C(=O)N[C@@H](CC(C)C)C(=O)N(C)CC(=O)N[C@@H](Cc2c[nH]c3ccccc23)C(=O)N[C@@H](CO)C(=O)N[C@@H](Cc2c[nH]c3ccccc23)C(=O)N[C@@H](Cc2ccccc2)C(=O)N1C
notes: macrocyclic peptide, Formula I series; Phe at 11 is not N-methylated; also called Compound 69
Take B6: the IC50 is 351 nM.

B7: Compound No. 38 (peptide)
peptide: {CH2CO}-[3Pal][NMeA]NPHL[Sar]WSW[NMeNle][NMeNle]RCG-NH2
modifications: thioether N-14
SMILES: CCCC[C@H]1C(=O)N(C)[C@@H](CCCC)C(=O)N[C@@H](CCCNC(=N)N)C(=O)N[C@H](C(=O)NCC(N)=O)CSCC(=O)N[C@@H](Cc2cccnc2)C(=O)N(C)[C@@H](C)C(=O)N[C@@H](CC(N)=O)C(=O)N2CCC[C@H]2C(=O)N[C@@H](Cc2c[nH]cn2)C(=O)N[C@@H](CC(C)C)C(=O)N(C)CC(=O)N[C@@H](Cc2c[nH]c3ccccc23)C(=O)N[C@@H](CO)C(=O)N[C@@H](Cc2c[nH]c3ccccc23)C(=O)N1C
notes: macrocyclic peptide, Formula I series; also called Compound 38
Take B7: the concentration for half-maximal inhibition (IC50) was 368 nM.

B8: Compound No. 32 (peptide)
peptide: {CH2CO}-[Phe(4-F)][NMeA]NPHL[Sar]WSW[NMeNle][NMeNle]RCG-NH2
modifications: thioether N-14
SMILES: CCCC[C@H]1C(=O)N(C)[C@@H](CCCC)C(=O)N[C@@H](CCCNC(=N)N)C(=O)N[C@H](C(=O)NCC(N)=O)CSCC(=O)N[C@@H](Cc2ccc(F)cc2)C(=O)N(C)[C@@H](C)C(=O)N[C@@H](CC(N)=O)C(=O)N2CCC[C@H]2C(=O)N[C@@H](Cc2c[nH]cn2)C(=O)N[C@@H](CC(C)C)C(=O)N(C)CC(=O)N[C@@H](Cc2c[nH]c3ccccc23)C(=O)N[C@@H](CO)C(=O)N[C@@H](Cc2c[nH]c3ccccc23)C(=O)N1C
notes: macrocyclic peptide, Formula I series; also called Compound 32
For B8, the half-inhibitory concentration (IC50) was 25 nM.

B9: Compound No. 26 (peptide)
peptide: {CH2CO}-[2Nal][NMeA]NPHL[Sar]WSW[NMeNle][NMeNle]RCG-NH2
modifications: thioether N-14
SMILES: CCCC[C@H]1C(=O)N(C)[C@@H](CCCC)C(=O)N[C@@H](CCCNC(=N)N)C(=O)N[C@H](C(=O)NCC(N)=O)CSCC(=O)N[C@@H](Cc2ccc3ccccc3c2)C(=O)N(C)[C@@H](C)C(=O)N[C@@H](CC(N)=O)C(=O)N2CCC[C@H]2C(=O)N[C@@H](Cc2c[nH]cn2)C(=O)N[C@@H](CC(C)C)C(=O)N(C)CC(=O)N[C@@H](Cc2c[nH]c3ccccc23)C(=O)N[C@@H](CO)C(=O)N[C@@H](Cc2c[nH]c3ccccc23)C(=O)N1C
notes: macrocyclic peptide, Formula I series; also called Compound 26
Consider B9, for which the IC50 came to 13 nM.

B10: Compound No. 27 (peptide)
peptide: {CH2CO}-[1Nal][NMeA]NPHL[Sar]WSW[NMeNle][NMeNle]RCG-NH2
modifications: thioether N-14
SMILES: CCCC[C@H]1C(=O)N(C)[C@@H](CCCC)C(=O)N[C@@H](CCCNC(=N)N)C(=O)N[C@H](C(=O)NCC(N)=O)CSCC(=O)N[C@@H](Cc2cccc3ccccc23)C(=O)N(C)[C@@H](C)C(=O)N[C@@H](CC(N)=O)C(=O)N2CCC[C@H]2C(=O)N[C@@H](Cc2c[nH]cn2)C(=O)N[C@@H](CC(C)C)C(=O)N(C)CC(=O)N[C@@H](Cc2c[nH]c3ccccc23)C(=O)N[C@@H](CO)C(=O)N[C@@H](Cc2c[nH]c3ccccc23)C(=O)N1C
notes: macrocyclic peptide, Formula I series; also called Compound 27
B10 gave a half-maximal inhibitory concentration (IC50) of 28 nM.

B11: Compound No. 52 (peptide)
peptide: FANPHLXWSWXXRCG
modifications: ClAc on N-terminus cyclized as thioether with Cys14; mAla (N-methyl-Ala) at 2; Dab (2,4-diaminobutyric acid, written X) at 7; mNle (N-methyl-norleucine, written X) at 11 and 12; C-terminal NH2
notes: macrocyclic peptide, Formula I series; also called Compound 52
On to B11, for which the 50% inhibitory concentration (IC50) amounted to 108 nM.

B12: Compound No. 65 (peptide)
peptide: FANPHLGWSWLXRCG
HELM: PEPTIDE1{[O=C(C[*:3])[*:2]].F.[meA].N.P.H.L.[Sar].W.S.W.[meL].[CCCC[C@@H](C(=O)[*:2])N(C)[*:1]].R.C.G.[am]}$PEPTIDE1,PEPTIDE1,1:R3-15:R3$$$V2.0
SMILES: CCCC[C@H]1C(=O)N[C@@H](CCCNC(=N)N)C(=O)N[C@H](C(=O)NCC(N)=O)CSCC(=O)N[C@@H](Cc2ccccc2)C(=O)N(C)[C@@H](C)C(=O)N[C@@H](CC(N)=O)C(=O)N2CCC[C@H]2C(=O)N[C@@H](Cc2c[nH]cn2)C(=O)N[C@@H](CC(C)C)C(=O)N(C)CC(=O)N[C@@H](Cc2c[nH]c3ccccc23)C(=O)N[C@@H](CO)C(=O)N[C@@H](Cc2c[nH]c3ccccc23)C(=O)N(C)[C@@H](CC(C)C)C(=O)N1C
notes: macrocyclic peptide, Formula I series; also called Compound 65
Consider B12, for which the 50% inhibitory concentration (IC50) amounted to 258 nM.

B13: Compound No. 24 (peptide)
peptide: {CH2CO}-F[NMeA]NPHL[Sar]WSW[NMeNle][NMeNle]RC-NH2
modifications: thioether N-14
SMILES: CCCC[C@H]1C(=O)N(C)[C@@H](CCCC)C(=O)N[C@@H](CCCNC(=N)N)C(=O)N[C@H](C(N)=O)CSCC(=O)N[C@@H](Cc2ccccc2)C(=O)N(C)[C@@H](C)C(=O)N[C@@H](CC(N)=O)C(=O)N2CCC[C@H]2C(=O)N[C@@H](Cc2c[nH]cn2)C(=O)N[C@@H](CC(C)C)C(=O)N(C)CC(=O)N[C@@H](Cc2c[nH]c3ccccc23)C(=O)N[C@@H](CO)C(=O)N[C@@H](Cc2c[nH]c3ccccc23)C(=O)N1C
notes: macrocyclic peptide, Formula I series; also called Compound 24
B13 yielded an IC50 of 8 nM.

B14: Compound No. 28 (peptide)
peptide: {CH2CO}-[Bip][NMeA]NPHL[Sar]WSW[NMeNle][NMeNle]RCG-NH2
modifications: thioether N-14
SMILES: CCCC[C@H]1C(=O)N(C)[C@@H](CCCC)C(=O)N[C@@H](CCCNC(=N)N)C(=O)N[C@H](C(=O)NCC(N)=O)CSCC(=O)N[C@@H](Cc2ccc(-c3ccccc3)cc2)C(=O)N(C)[C@@H](C)C(=O)N[C@@H](CC(N)=O)C(=O)N2CCC[C@H]2C(=O)N[C@@H](Cc2c[nH]cn2)C(=O)N[C@@H](CC(C)C)C(=O)N(C)CC(=O)N[C@@H](Cc2c[nH]c3ccccc23)C(=O)N[C@@H](CO)C(=O)N[C@@H](Cc2c[nH]c3ccccc23)C(=O)N1C
notes: macrocyclic peptide, Formula I series; also called Compound 28
Consider B14, for which the IC50 was found to be 82 nM.
